Blank lines part the entries; values can stand above or below the molecule they belong to.
Legend:
[1] = biological target: GST-tagged full-length S. cerevisiae Pus4 (S. cerevisiae) (UniProt P48567); assay: sucrose gradient ultracentrifugation; 10 uM purified GST-Pus4 with and without 10 uM total yeast tRNA, 30 min at room temperature; 10-30% sucrose step gradient in Buffer B (50 mM Tris-HCl pH 7.5, 100 mM KCl), SW 55 Ti, 4 h at 55,000 rpm; fractions read by SDS-PAGE; standards beta-amylase and carbonic anhydrase; apparent molecular …
GST-Pus4 [2] = biological target: T1, GST-Pus4 (Saccharomyces cerevisiae, UniProt P48567 1-403); assay: smFRET / PIFE; 200 nM Pus4; BLI: 50 mM Tris-HCl pH 7.5, 100 mM KCl, 0.02% Tween-20, 30 °C; EMSA: 50 mM Tris-HCl pH 7.5, 100 mM KCl, 30 min room temperature, 8% native PAGE in TBE at 4 °C; settings: protein: recombinant; tags: N-terminal GST, Factor Xa site (pGEX-5X-3); tag not removed; label: 5' biotin; Cy3 at U4 C5; Cy5 at U41 C5; tRNA cloverleaf
GST-Pus4 [3] = biological target: T1, GST-Pus4; assay: EMSA; 30 nM RNA; all bound at >=200 nM Pus4, 30 min; labelled form assumed; BLI: 50 mM Tris-HCl pH 7.5, 100 mM KCl, 0.02% Tween-20, 30 °C; EMSA: 50 mM Tris-HCl pH 7.5, 100 mM KCl, 30 min room temperature, 8% native PAGE in TBE at 4 °C; settings: protein: recombinant; tags: N-terminal GST, Factor Xa site (pGEX-5X-3); tag not removed; label: 5' biotin; Cy3 at U4 C5; Cy5 at U41 C5; tRNA cloverleaf

T1 sequence (P48567 whole entry): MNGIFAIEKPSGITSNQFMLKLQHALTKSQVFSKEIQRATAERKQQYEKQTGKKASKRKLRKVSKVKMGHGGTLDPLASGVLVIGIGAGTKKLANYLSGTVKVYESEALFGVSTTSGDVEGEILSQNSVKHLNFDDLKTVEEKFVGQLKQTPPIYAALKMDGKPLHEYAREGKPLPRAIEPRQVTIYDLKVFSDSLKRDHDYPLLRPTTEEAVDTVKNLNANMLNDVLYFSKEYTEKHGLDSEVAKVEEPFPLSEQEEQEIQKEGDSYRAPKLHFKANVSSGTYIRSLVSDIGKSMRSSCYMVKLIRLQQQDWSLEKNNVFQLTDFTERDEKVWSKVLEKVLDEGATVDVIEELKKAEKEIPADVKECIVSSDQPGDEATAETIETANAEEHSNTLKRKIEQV

stoichiometry N [1]: 2
Molecule: GST-tagged full-length S. cerevisiae Pus4 (from UniProt P48567 1-403) (enzyme)

B1: Ψ55 tRNA eMet(CAU), Cy3/Cy5 (structured_RNA)
RNA: GCUUCAGUAGCUCAGUAGGAAGAGCGUCAGUCUCAUAAUCUGAAGGUCGAGAGUUCGAACCUCCCCUGGAGCACCA
modifications: pseudouridine at position 55 (second U of GAGAGUUCGAA)
binding result (GST-Pus4 [2]): binds

B2: U55 tRNA eMet(CAU), Cy3/Cy5 (structured_RNA)
RNA: GCUUCAGUAGCUCAGUAGGAAGAGCGUCAGUCUCAUAAUCUGAAGGUCGAGAGUUCGAACCUCCCCUGGAGCACCA
binding result (GST-Pus4 [3]): binds

— PMC13270999, “Chronology of tRNA structural dynamics prior to and during interaction with a pseudouridine synthase”
